According to PMC11897886 (Nucleic Acids Research, 2024):

T1: CBP-Upf1-HD-Ct (S. cerevisiae, UniProt P30771 221-971)
T1 sequence: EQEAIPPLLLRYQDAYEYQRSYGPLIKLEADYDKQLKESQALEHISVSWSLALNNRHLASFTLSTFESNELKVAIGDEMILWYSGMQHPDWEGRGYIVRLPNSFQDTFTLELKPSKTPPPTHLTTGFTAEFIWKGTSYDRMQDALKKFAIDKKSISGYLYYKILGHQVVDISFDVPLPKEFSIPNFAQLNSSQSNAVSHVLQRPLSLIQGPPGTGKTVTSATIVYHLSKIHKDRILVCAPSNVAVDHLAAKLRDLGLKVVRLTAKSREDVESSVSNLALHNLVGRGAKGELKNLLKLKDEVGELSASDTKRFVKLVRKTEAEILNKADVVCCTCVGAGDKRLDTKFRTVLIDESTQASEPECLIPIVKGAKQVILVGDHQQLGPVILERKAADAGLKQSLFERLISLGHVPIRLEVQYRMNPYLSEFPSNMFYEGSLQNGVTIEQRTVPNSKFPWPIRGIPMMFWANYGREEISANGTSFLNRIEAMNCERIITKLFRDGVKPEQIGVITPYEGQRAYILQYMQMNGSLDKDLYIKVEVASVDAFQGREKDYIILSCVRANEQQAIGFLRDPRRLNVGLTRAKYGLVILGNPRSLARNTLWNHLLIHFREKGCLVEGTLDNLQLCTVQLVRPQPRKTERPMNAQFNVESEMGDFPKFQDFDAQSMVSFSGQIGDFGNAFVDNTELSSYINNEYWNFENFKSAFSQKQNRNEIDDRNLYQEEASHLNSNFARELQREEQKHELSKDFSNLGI

T2: CBP-Upf1-FL (S.c. Upf1 full-length) (S. cerevisiae, UniProt P30771 1-971)
T2 sequence: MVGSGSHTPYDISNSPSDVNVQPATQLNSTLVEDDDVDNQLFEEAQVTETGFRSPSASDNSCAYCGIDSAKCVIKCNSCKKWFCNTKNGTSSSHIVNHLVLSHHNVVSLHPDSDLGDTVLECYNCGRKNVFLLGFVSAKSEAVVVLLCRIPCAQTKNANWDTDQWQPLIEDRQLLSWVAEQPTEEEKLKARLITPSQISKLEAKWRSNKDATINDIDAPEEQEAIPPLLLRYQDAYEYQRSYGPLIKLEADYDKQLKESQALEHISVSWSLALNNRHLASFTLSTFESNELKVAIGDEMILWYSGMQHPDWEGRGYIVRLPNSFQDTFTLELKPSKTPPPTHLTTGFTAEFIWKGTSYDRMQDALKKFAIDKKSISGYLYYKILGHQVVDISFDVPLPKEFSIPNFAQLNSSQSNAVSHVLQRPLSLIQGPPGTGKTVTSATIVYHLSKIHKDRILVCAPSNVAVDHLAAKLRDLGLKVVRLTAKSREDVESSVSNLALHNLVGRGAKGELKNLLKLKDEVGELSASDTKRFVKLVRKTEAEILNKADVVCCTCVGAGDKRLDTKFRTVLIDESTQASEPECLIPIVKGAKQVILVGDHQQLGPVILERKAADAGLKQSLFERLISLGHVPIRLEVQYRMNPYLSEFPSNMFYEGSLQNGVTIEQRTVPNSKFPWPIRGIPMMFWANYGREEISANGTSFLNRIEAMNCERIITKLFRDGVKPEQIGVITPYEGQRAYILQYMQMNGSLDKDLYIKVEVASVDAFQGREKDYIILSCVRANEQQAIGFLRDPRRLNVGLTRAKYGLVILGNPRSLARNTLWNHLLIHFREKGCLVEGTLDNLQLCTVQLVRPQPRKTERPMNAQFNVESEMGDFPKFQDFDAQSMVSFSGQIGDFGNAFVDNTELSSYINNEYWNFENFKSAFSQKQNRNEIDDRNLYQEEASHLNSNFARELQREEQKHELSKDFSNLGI

T3: CBP-Upf1-CH-HD (S. cerevisiae, UniProt P30771 54-851)
T3 sequence: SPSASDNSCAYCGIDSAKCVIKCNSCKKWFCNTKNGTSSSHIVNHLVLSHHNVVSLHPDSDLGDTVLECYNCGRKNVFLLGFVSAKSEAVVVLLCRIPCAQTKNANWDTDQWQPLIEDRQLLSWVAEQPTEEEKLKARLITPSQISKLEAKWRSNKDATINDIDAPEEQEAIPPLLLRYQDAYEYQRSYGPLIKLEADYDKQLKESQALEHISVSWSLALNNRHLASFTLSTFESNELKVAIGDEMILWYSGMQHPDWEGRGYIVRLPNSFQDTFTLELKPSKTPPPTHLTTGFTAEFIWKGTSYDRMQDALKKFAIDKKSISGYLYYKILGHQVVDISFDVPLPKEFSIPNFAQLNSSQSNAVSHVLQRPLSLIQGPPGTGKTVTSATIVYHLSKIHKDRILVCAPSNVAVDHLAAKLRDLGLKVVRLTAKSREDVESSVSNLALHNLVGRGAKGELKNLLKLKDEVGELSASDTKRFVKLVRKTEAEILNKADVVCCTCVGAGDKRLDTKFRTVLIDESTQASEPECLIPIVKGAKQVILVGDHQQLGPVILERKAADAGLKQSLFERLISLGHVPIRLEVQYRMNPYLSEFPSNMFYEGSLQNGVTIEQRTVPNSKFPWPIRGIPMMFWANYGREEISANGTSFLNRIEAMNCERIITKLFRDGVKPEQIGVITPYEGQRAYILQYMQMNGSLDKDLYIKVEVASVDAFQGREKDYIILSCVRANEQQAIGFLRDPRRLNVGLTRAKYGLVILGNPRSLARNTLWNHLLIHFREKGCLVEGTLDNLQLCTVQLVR

T4: CBP-Upf1-HD (S. cerevisiae, UniProt P30771 221-851)
T4 sequence: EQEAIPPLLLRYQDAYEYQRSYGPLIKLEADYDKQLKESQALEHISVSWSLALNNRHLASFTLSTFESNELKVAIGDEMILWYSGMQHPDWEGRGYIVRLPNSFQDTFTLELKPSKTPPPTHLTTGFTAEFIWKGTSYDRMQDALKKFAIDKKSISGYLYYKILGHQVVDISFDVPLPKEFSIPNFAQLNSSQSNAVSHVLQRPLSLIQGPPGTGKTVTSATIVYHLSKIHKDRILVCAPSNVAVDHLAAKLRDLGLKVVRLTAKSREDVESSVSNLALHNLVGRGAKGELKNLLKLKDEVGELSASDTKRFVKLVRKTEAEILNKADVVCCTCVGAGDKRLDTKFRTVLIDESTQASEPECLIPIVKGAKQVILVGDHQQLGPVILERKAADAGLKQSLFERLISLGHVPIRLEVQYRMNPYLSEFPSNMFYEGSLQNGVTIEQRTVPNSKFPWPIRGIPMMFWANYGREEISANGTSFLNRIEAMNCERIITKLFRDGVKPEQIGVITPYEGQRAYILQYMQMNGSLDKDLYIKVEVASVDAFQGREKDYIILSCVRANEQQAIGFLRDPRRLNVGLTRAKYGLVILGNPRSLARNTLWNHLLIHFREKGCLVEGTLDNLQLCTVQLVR

T5: GST-Ebs1 (aa 1-591) (S. cerevisiae, UniProt Q03466 1-591)
T5 sequence: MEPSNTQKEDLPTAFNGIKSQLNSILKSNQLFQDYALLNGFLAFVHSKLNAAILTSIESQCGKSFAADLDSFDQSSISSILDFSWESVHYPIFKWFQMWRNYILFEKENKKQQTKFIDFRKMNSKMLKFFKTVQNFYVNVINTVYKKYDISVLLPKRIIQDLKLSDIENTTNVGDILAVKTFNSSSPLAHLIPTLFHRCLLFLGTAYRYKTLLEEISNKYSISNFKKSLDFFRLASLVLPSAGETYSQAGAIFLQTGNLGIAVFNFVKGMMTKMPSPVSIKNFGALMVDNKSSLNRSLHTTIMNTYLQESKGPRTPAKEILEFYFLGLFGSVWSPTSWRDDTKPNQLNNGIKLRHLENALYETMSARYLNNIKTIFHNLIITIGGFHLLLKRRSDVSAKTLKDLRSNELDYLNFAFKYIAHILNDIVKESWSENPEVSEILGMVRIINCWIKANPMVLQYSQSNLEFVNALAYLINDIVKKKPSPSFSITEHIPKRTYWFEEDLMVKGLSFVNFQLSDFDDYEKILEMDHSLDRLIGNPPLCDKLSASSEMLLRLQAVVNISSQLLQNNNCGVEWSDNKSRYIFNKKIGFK


Columns and labels:
[1] = target: FITC-labeled Dcp2-UBM1 peptide (aa 456-479) (S. cerevisiae) (UniProt P53550); assay: fluorescence polarisation
FITC-labeled Dcp2-UBM1 peptide (aa 456-479) (S. cerevisiae), sequence (P53550 456-479): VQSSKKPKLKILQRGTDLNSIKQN

[2] = target: FITC-labeled Dcp2-UBM2 peptide (aa 694-718) (S. cerevisiae) (UniProt P53550); assay: fluorescence polarisation
FITC-labeled Dcp2-UBM2 peptide (aa 694-718) (S. cerevisiae), sequence (P53550 694-718): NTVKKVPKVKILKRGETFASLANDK

[3] = target: CBP-Upf1-CH-His (S. cerevisiae); assay: SDS-PAGE band identified by Western blotting and mass spectrometry
CBP-Upf1-HD-Ct = target: T1, CBP-Upf1-HD-Ct; assay: pull-down
[4] = target: T2, CBP-Upf1-FL (S.c. Upf1 full-length); assay: pull-down
CBP-Upf1-CH-HD = target: T3, CBP-Upf1-CH-HD; assay: pull-down
CBP-Upf1-HD = target: T4, CBP-Upf1-HD; assay: pull-down
GST-Ebs1 (aa 1-591) = target: T5, GST-Ebs1 (aa 1-591); assay: pull-down

Molecule | Kd [1] [µM] | Kd [2] [µM] | stoichiometry N [3] | binding result (CBP-Upf1-HD-Ct) | binding result [4] | binding result (CBP-Upf1-CH-HD) | binding result (CBP-Upf1-HD) | binding result (GST-Ebs1 (aa 1-591))
CBP-Upf1-CH-His (domain or fragment) | 60.1 | 25.1 | 2 | – | – | – | – | –
GST-Dcp1/Dcp2-S heterodimer (complex) chain 1: MTGAATAAENSATQLEFYRKALNFNVIGRYDPKIKQLLFHTPHASLYKWDFKKDEWNKLEYQGVLAIYLRDVSQNTNLLPVSPQEVDIFDSQNGSNNIQVNNGSDNSNRNSSGNGNSYKSNDSLTYNCGKTLSGKDIYNYGLIILNRINPDNFSMGIVPNSVVNKRKVFNAEEDTLNPLECMGVEVKDELVIIKNLKHEVYGIWIHTVSDRQNIYELIKYLLENEPKDSFA chain 2: MSLPLRHALENVTSVDRILEDLLVRFIINCPNEDLSSVERELFHFEEASWFYTDFIKLMNPTLPSLKIKSFAQLIIKLCPLVWKWDIRVDEALQQFSKYKKSIPVRGAAIFNENLSKILLVQGTESDSWSFPRGKISKDENDIDCCIREVKEEIGFDLTDYIDDNQFIERNIQGKNYKIFLISGVSEVFNFKPQVRNEIDKIEWFDFKKISKTMYKSNIKYYLINSMMRPLSMWLRHQRQIKNEDQLKSYAEEQLKLLLGITKEEQIDPGRELLNMLHTAVQANSNNNAVSNGQVPSSQELQHLKEQSGEHNQQK | – | – | – | binds | binds | binds | binds | –
CBP-Upf1-Ct (domain or fragment) PQPRKTERPMNAQFNVESEMGDFPKFQDFDAQSMVSFSGQIGDFGNAFVDNTELSSYINNEYWNFENFKSAFSQKQNRNEIDDRNLYQEEASHLNSNFARELQREEQKHELSKDFSNLGI | – | – | – | – | – | – | – | binds
TS-Nmd4-His (full-length Nmd4, aa 1-218) (natural protein) MTQYNFIIDASAFEKGLGNIKRWCSDCTEAVTLNFYIPTFTLNELDFLQQRRKSFAARESLKFIDRLDDSKFANLKVFIEFPEVLDIILWSDVMEHNDSSGKINIAKLPKRLKNLLKSCIYKCYLEGNEGLHWFLISEDPQIREMAMQCNIPSCSIVDVDSILSKDMNDKSFRESEKFNNMMLKNGTKEESENGREIIRTNFNKTVYASRGTGELWSP | – | – | – | binds | binds | binds | binds | –
